# Patent US20210380702A1 (Regeneron, published 2021)
# Several values for one entry are separate records, joined by “and”; a condition that tells them apart may be missing. Equal values may be shown once.
# Legend:
# [1] = biological target: T1, recombinant human PD-L1 (amino acids 19-239 of NP_054862.1) expressed with a C-terminal mouse IgG2a Fc tag (human); experiment: competition ELISA: 8 nM hPD-L1-mFc binding to coated hB7-1-hFc-6His
# T1 construct: called dimeric; also called hPD-L1-mFc
# Protocol: (§1) The ability of monoclonal anti-PD-L1 antibodies to block human PD-L1 from binding to its binding partners, the human PD-1 and the human B7-1 receptors, was measured using two competition sandwich ELISA formats.
# (§2) A dimeric human PD-1 protein comprised of a portion of the extracellular domain (amino acids 25-170 of accession number NP_005009.2 with a C93S change) that was expressed with a C-terminal hFc tag (hPD-1-hFc; SEQ ID: 350) and a dimeric human B7-1 protein comprised of a portion of the extracellular domain expressed with C-terminal hFc tag and hexahistidine tags (hB7-1-hFc-6His; R&D Systems, #140-B1) were separately coated at 2 μg/mL on a 96-well microtiter plate in a PBS buffer overnight at 4° C. […] These antibody-protein complexes were then incubated for 1 hour at room temperature (RT). […] The complexes were allowed to bind to the coated plates for 1 hour at RT. […] Samples were developed with a TMB solution (BD Biosciences, #51-2606KC and #51-2607KC) to produce a colorimetric reaction and neutralized with 1M sulfuric acid before measuring absorbance at 450 nm on a Victor X5 plate reader. Data analysis used a sigmoidal dose-response model within Prism™ software.
# [2] = biological target: T2, full length human PD-L1 (amino acids 1 to 290 of NP_054862.1) on transfected cells (human, UniProt Q9NZQ7 19-290); experiment: cell-based or functional assay
# T2 sequence (Q9NZQ7 19-290 limits assumed): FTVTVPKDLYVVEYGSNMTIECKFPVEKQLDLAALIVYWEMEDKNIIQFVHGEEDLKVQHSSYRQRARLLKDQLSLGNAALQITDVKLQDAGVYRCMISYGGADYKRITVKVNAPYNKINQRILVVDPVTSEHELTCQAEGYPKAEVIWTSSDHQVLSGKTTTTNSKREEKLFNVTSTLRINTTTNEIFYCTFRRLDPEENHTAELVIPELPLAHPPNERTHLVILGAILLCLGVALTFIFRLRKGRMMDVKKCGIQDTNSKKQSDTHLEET
# [3] = biological target: T2, full length human PD-L1 (amino acids 1 …); experiment: FACS, 100 nM antibody, HEK293/hPD-L1 cells
# Protocol: (§3) The binding of anti-PD-L1 antibodies to a human embryonic kidney cell line (HEK293; ATCC, #CRL-1573) stably transfected with full length human PD-L1 (amino acids 1 to 290 of accession number NP_054862.1) (HEK293/hPD-L1) was determined by FACS.
# (§4) For the assay, adherent cells were detached using enzyme-free dissociation buffer and blocked with complete medium. Cells were centrifuged and resuspended at a concentration of 2.8×10\hat{ }6 cells/mL in cold PBS containing 2% FBS. […] Cells were washed with D-PBS containing 2% FBS to remove unbound secondary detection reagents and fluorescence measurements were acquired using a HyperCyte (IntelliCyt, Inc.) flow cytometer. Data was analyzed using HyperCyte software.
# [4] = biological target: T1, recombinant human PD-L1 (amino acids …); experiment: competition ELISA: 0.5 nM hPD-L1-mFc binding to coated hPD-1-hFc
# Protocol: as §1, §2
# [5] = biological target: T2, full length human PD-L1 (amino acids 1 …); experiment: FACS, 100 nM antibody
# Protocol: as §3, §4
# [6] = biological target: T1, recombinant human PD-L1 (amino acids …); experiment: BLI (Octet Red96): 100 nM hPD-L1-mFc + 500 nM mAb on captured hPD-1-hFc, 25C
# Protocol: Inhibition studies for anti-PD-L1 monoclonal antibodies expressed with mouse Fc were performed on an Octet Red96 instrument. […] Approximately 0.8 nm to 1.2 nm of recombinant human PD-1 expressed with a C-terminal human IgG1 Fc tag (hPD-1-hFc; SEQ ID: 350) was captured using anti-human IgG Fc capture biosensors. […] The entire experiment was performed at 25° C. in Octet HBST buffer (0.01 M HEPES pH7.4, 0.15M NaCl, 3 mM EDTA, 0.05% v/v Surfactant P20, 0.1 mg/mL BSA) with a plate shaking at a speed of 1000 rpm. The biosensors were washed in Octet HBST buffer in between each step of the experiment. The real-time binding response was monitored during the course of the experiment and the binding response at the end of every step was recorded.
# [7] = biological target: T3, recombinant cynomolgus monkey PD-L1 expressed with a C-terminal mouse IgG2a Fc tag (cynomolgus monkey); experiment: SPR (Biacore), mAb captured, 37C
# T3 construct: also called MfPD-L1-mFc; monkey PD-L1-mFc
# T3 sequence (chain, as listed by the source limits assumed): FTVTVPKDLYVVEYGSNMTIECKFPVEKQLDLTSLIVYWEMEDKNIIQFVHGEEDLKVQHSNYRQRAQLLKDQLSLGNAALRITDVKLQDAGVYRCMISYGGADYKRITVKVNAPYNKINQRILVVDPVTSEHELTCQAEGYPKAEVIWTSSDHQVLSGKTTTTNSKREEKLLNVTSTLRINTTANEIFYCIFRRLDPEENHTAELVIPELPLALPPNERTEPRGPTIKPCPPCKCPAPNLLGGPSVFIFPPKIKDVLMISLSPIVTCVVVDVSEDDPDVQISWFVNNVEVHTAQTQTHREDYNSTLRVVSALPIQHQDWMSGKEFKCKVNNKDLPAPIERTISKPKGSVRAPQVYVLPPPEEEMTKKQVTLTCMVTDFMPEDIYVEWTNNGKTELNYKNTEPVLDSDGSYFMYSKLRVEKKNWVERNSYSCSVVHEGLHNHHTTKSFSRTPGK
# [8] = biological target: T4, recombinant human PD-L1 (amino acids 19-239 of NP_054862.1) expressed with a C-terminal human IgG1 Fc tag (human); experiment: SPR (Biacore 3000): 100 nM hPD-L1-hFc + 500 nM mAb on captured hPD-1-mFc, 25C
# T4 construct: also called hPD-L1-hFc
# T4 sequence (chain, as listed by the source limits assumed): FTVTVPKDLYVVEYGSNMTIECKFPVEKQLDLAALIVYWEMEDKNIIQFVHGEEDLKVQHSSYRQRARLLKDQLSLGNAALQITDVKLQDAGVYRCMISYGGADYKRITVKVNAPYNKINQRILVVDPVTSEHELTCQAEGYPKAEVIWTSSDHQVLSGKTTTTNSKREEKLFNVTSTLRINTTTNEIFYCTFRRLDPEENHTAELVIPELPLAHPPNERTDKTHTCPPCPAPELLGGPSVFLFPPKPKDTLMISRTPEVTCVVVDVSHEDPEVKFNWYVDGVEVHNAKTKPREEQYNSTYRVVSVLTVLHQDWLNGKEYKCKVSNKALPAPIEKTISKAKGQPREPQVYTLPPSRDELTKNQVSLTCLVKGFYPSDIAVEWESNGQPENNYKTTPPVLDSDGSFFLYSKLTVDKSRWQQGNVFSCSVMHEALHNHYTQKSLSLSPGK
# Protocol: Next, inhibition studies for anti-PD-L1 monoclonal antibodies expressed with human Fc were performed on Biacore 3000 instrument. […] The entire experiment was performed at 25° C. in HBST running buffer (0.01 M HEPES pH7.4, 0.15M NaCl, 3 mM EDTA, 0.05% v/v Surfactant P20). The real-time binding responses were monitored during the entire course of the experiment and the binding response at the end of every step was recorded.
# T1 sequence (chain, as listed by the source limits assumed): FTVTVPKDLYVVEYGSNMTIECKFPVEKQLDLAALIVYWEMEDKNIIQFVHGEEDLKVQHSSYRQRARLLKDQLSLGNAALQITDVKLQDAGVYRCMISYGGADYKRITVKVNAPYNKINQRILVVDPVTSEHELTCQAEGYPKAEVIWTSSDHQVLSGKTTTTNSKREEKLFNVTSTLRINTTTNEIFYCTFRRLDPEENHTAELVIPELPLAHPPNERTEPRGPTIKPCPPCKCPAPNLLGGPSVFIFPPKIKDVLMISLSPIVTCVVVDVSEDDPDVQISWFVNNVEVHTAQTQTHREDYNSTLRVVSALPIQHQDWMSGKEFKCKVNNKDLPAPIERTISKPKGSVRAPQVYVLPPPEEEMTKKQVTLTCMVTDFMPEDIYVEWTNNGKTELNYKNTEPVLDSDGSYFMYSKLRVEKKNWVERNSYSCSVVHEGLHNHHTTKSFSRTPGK
Binder,% maximum blocking [1],IC50 [1],Concentration [M] of Antibody at 125% activation [2],Emax mean [%] @ 100 nM [2],MFI [3],% maximum blocking [4],IC50 [4],Ratio of HEK293/hPD-L1 to HEK293 parental cells [5],% Blocking [6],Kd [7],koff [7],kon [7],t1/2 [7],% Blocking [8]
"H2aM8306N (antibody, V domains shown, human variable regions, mouse IgG2 Fc (H2aM prefix); also called H2M8306N) VH: EVQLVESGGGLVQPGGSLRLSCAASGFTFSRFWMSWVRQAPGKGLEWVANINQDGTEKYYVDSVKGRFTISRDNAKNSLYLQMNSLRAGDTAVYYCANTYYDFWSGHFDYWGQGTLVTVSS VL: not shown",93%,< 4 nM,3.78e-09 M,167%,316000 MFI,99%,< 0.25 nM,246,94%,–,–,–,–,–
"H2aM8312N (antibody, V domains shown, human variable regions, mouse IgG2 Fc (H2aM prefix); also called H2M8312N) VH: QVHLVQSGAEVKKPGASVKVSCKASGYTFTGYYIHWVRQAPGHGLEWMGWLNPNTGTTKYIQNFQGRVTMTRDTSSSTAYMELTRLRSDDTAVYYCARDEDWNYGSWFDTWGQGTLVTVSS VL: not shown",98%,< 4 nM,–,75.6%,158000 MFI,23%,–,115,-68%,–,–,–,–,–
"H1H9364P2 (antibody, V domains shown, human IgG1 Fc (H1H prefix)) VH: EVQLVESGGGLVQPGRSLRLSCAASGFTFDDYALHWVRQAPGKGLEWVSGISWTGGTIDYADSVKGRFTISRDNAKNSLYLQMSSLRTEDTAIYYCTRDIRGNWKYGGWFDPWGQGTLVTVSS VL: not shown",101%,4.1 nM,–,–,324000 MFI,100%,< 0.25 nM,157,–,0.0471 nM and 0.028 nM,0.000111 s⁻¹ and 6.76e-05 s⁻¹,2.36e+06 M⁻¹ s⁻¹ and 2.41e+06 M⁻¹ s⁻¹,1.73 h and 2.85 h,86%
"H2aM8317N (antibody, V domains shown, human variable regions, mouse IgG2 Fc (H2aM prefix); also called H2M8317N) VH: EVQLVESGGGLVQPGGSLRLSCAASGFTVGSNYMNWVRQAPGKGLEWVSVIYSGGSTYYADSVKGRFTISRLTSKNTLYLQMSSLRPEDTAVYYCARGIRGLDVWGQGTTVTVSS VL: DIQMTQSPSSLSASVGDRVTITCRASQTINIYLNWYQQKPGRAPRLLIYAASSLQSGVPSRFSGSGSGTDFTLTISSLQPEDFATYYCHQSYSTPPITFGQGTRLEIK",-166%,–,–,109%,67600 MFI,-11%,–,53,-87%,–,–,–,–,–
"H2aM8310N (antibody, V domains shown, human variable regions, mouse IgG2 Fc (H2aM prefix); also called H2M8310N) VH: QVQLVQSGAEVKKPGASVQVSCKASGYSFTGYYIHWVRQAPGQGLEWMGWINPNSGTKKYAHKFQGRVTMTRDTSIDTAYMILSSLISDDTAVYYCARDEDWNFGSWFDSWGQGTLVTVSS VL: DIVMTQTPLSSPVTLGQPASISCRSSQTLVHGDGNTYLSWIQQRPGQPPRLLIYKVSNQFSGVPDRFSGSGAGTDFTLKISRVEAEDVGLYFCMQATHFPITFGQGTRLEIK",98%,< 4 nM,–,113%,14900 MFI,76%,0.39 nM,11,58%,–,–,–,–,–
"H2aM8309N (antibody, V domains shown, human variable regions, mouse IgG2 Fc (H2aM prefix); also called H2M8309N) VH: not shown VL: DIQMTQSPSSLSASVGDRVTITCRTSQGIRNDLGWYQQKPGKAPKRLIYAASSLQSGVPSRFSGSGSGTEFTLTISSLQPEDFATYYCLQHNNYPYTFGQGTKLEIK",98%,< 4 nM,3.09e-10 M,181%,193000 MFI,98%,< 0.25 nM,166,94%,–,–,–,–,–

# Second part, the binder after the results:
% maximum blocking [1],IC50 [1],Concentration [M] of Antibody at 125% activation [2],Emax mean [%] @ 100 nM [2],MFI [3],% maximum blocking [4],IC50 [4],Ratio of HEK293/hPD-L1 to HEK293 parental cells [5],% Blocking [6],Kd [7],koff [7],kon [7],t1/2 [7],% Blocking [8],Binder
99%,< 4 nM,2.2e-10 M,173%,163000 MFI,100%,< 0.25 nM,73,94%,–,–,–,–,–,"H2aM8323N (antibody, V domains shown, human variable regions, mouse IgG2 Fc (H2aM prefix); also called H2M8323N) VH: QVQLVQSGAEVKMPGSSVRVSCKASGGIFSSSTISWVRQAPGQGLEWMGEIIPVFGTVNYAQKFQDRVIFTADESTTTAYMELSSLKSGDTAVYFCARNWGLGSFYIWGQGTMVTVSS VL: EIVLTQSPGTLSLSPGERATLSCRASQSFNFNYLAWYQQKPGQAPRLLIYGASSRATGIPDRFSGSGSGTDFTLTINRLEPEDFGVFYCQQYESAPWTFGQGTKVEIK"
97%,< 4 nM,1.44e-11 M,235%,195000 MFI,93%,< 0.25 nM,95,94%,–,–,–,–,–,"H2aM8314N (antibody, V domains shown, human variable regions, mouse IgG2 Fc (H2aM prefix); also called H2M8314N) VH: EVQLVESGGGVVRPGGSLRLSCAASGFTFDDYGMTWVRQAPGRGLEWVSGIHWHGKRTGYADSVKGRFTISRDNAKKSLYLQMNSLKGEDTALYHCVRGGMSTGDWFDPWGQGTLVIVSS VL: DIQMTQSPSSLSASLGDRVTITCRASQSINSYLNWYQQKPGKAPKLLIYVASSLQSGVPSRFSGSGSGTEFTLTISNLQPEDFATYYCQQSYSTPPITFGQGTRLEIK"
-124%,–,–,117%,112000 MFI,10%,–,85,-94%,–,–,–,–,–,"H2aM8321N (antibody, V domains shown, human variable regions, mouse IgG2 Fc (H2aM prefix); also called H2M8321N) VH: EERLVESGGDLVQPGGSLRLSCAASGITVGTNYMNWVRQAPGKGLEWVSVISSGGNTHYADSVKGRFIMSRQTSKNTLYLQMNSLETEDTAVYYCARGIRGLDVWGQGTMVTVSS VL: DIQMTQSPSSLSASVGDRVTITCRASQSMSSYLNWYQQKPGRAPKLLIFAASSLQSGVPSRFSGSGSGTDFTLTISSLQPEDFATYYCQQSYSTPPITFGQGTRLEIK"
100%,4.9 nM,–,124%,282000 MFI,100%,< 0.25 nM,188,–,0.708 nM,0.00154 s⁻¹,2.18e+06 M⁻¹ s⁻¹,0.133 h,97%,"H1H9329P (antibody, V domains shown, human IgG1 Fc (H1H prefix)) VH: EVQLVESGGGLVQSGGSLRLSCAASGFTFSSYWMSWVRQAPGKGLEWVANIKQDGSEKYYVDSVKGRFTISRDNAKNSLYLQMNSLRADDTAVYYCARDDIVVVPAPMGYYYYYFGMDVWGQGTTVTVSS VL: DIQMTQSPSSLSASVGDRVTITCRASQGIRNDLGWYQQKPGKAPKRLIYAASSLQSGVPSRFSGSGSGTEFTLTISSLQPEDFATYYCLQHNSYPYTFGQGTKLEIK"
